From the domain aggregation screens of Martell et al. (2025)

Assay: soluble fraction after stress (log2 fold change); higher = more stays soluble; pooled small domains, quantitative proteomics
Conditions: stress: pH 4
How it was run: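 Aggregation propensity is estimated from the fold change in each domain's soluble amount after acid stress. Pooled small-domain libraries were stressed at pH 4, and higher log2 values mean more stayed soluble.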

Sequence | soluble fraction (log2)
HMSDDSTIVELLASSLRRDIAFGTLLPDQKLKLNELRTRYGGSIHSMRETLRILSAEGLVEATAQRGFRVT | -0.395
HMTEEEEFEKGFEILVNLSHFNRFSVYKEDEYVIVRIADYDFNEYFKVKKSDVGRIAEFLNENIT | -1.86
HMRDDAIQQGREIVERELHRLDLAYTTLTDVLAKLEYEKLDDLYAAVGFGIRSPHSVAAAALQVERDKA | -1.19
HMAEPYDERKVMEQMIPKGKNTIVAHLGHLKDHGETGYLQEALSYLRERESELGFDLKEVRALVHN | -0.223
HMPTELVYTVPASAEGLRLDHFLVQHVPHMTRALATELTGAGGVRVNGRRAKKGDRLPSGAEVRLER | 0.286
HMLDEIAGQKVRVLEEINNSEGTGKVMYRGVEWMARSVDDAVMAKDSIVTVQSISGVKLMVT | -0.498
HMGFAEFWLAYPKKVGKGEAERKWKTLKPDAGAVLSAVKRQSASEQWRKDGGRYIPNPATWLHQRRWE | 0.243
HMNLNESVELGQELLSQALAQLGIRGELSPSTIDKLLAESSAKSMEELYADIGIGKRMPALVARHIFGLMD | -0.491
HMEYYEDEELDRFRGRNSDQYSDAEIEEFNEILTTLRSEEVAGWIRSLQLREIALPDELKDDVILLVG | -1.51
HMTPELTAEEREVLSLLGDEPRTLAELIAASGRDYAALSVLLMGLELSQAVRQLPGNRYERF | -1.36
HMETISEIWRLIDGLDEIYRVPLTMYYRSNRSVREIAETLGLSARTVETRIYRARRMIREKWSN | -0.679
HMIDHLPPQRAAVLAFLQRELVAGRSPSLAEIALAFGFASRNAAQKHVQALVADGLLEQATGRSRGLRLPG | -0.235
HMTLGPKQMGEAIIKNLKEKTGKSLEEWSQRILIHELTDKKEIIDFLKNDNGLGHFQALKIFEHLNGK | -0.652
HMSSESIKTDKNVGVGSTLEELEKAYGSDYTLSGKMYRYYQDDNSKYMYFFILNDVVQYYGYGIDV | -1.38
HMGSEEMLGALGVVERATDDGDWWIAVHGEHWRARSAQALVPGDRVRVARIDGLTLTVTPIA | 0.0708
HMHVGVWIMNEKGEILLEQRASNKKVDPNKWARIGGHVDAGEKPIQAIQREILEEIGVKIPLENFIVLET | -0.592
HMLSDAAAMESIAYEAIRQMEPDTYYIIGAGTTTRGIMEVLGLKNTLIGVDLIRNKELVANDLGGKELLSY | -0.796
HMIDDNTIIQIGDSYSKSIRLLGEPIELKNRSLNQKSYFMAVYDFKGRRYRLFFENDVLFDILRD | -0.486
HMQEEELYPRLEEVINQHRGKGEDLIMVLHKAQNLFGYLPRRAQEMVAEGLNVSLNEVYGVITFYNFFST | -0.342
HMTTQTGTVKWFNEGKGFGFIAPDDGGKDLFAHFKEIQGTGFKTLAENQRVEFEVTQGQKGPQASKI | -0.469

Sequence | soluble fraction (log2)
HMVKVEVKPNVLQWVIKRMDNFDRLKDQFPNIDKWINQESQPTLKQLEKLAKMTAVPLGYFFLPNPPEEK | -0.507
HMQAQQYYMLLMNKATSALKIEALGANSNKAHQSFGTKTAGGSAVYWGILFNSNGKIYKIVG | -0.15
HMGVNNDIIKHRKLEFMIEMLPDTFTRKEANEIGEGLGISLATLTRYLSSDAFERTGHGRYRKKD | 0.139
HMQEPVYRPVFPGMTDADRQSAMEALKEGGFSPRLNRQTGQLEVDASGYHEAKIYLASQGIPAE | 0.22
HMSLTEEQVDSGLKEIRLALLEADVALPVVKNFITNIKPKAIGQEIIRSTSPGQMIVKIVYDELVSIL | -0.85
HMVVKSPLEMAFDKFREMRKKIRKPMTERAEELIWKELSKLAGEDSDLKIEILEQSIRNGWQDVYAVK | -0.064
HMKPLRPVHLEIQTHRLSPVGILRSSFRQAGKVMHSNHGRITGLNLEQLKLIQAAFAGEALPK | 0.0473
HMFKEVPVPDVKGMTLEEAKLALEKEGFILGKTEEAESTEVAAGKIISQNLEAGKIAKQGTSVNLVVSKGK | -0.0392
HMSEDTYNTLTKGTRVYNGVDYGAKYGYNPLYYFLNYNDLRIAYGADPAKLVEHYALFGIKENRVANRQIT | -0.247
HMAVLGIQPVFHRSTGQTVYKSSVNTAKGRVYLGLFPTLTEALEIKLKYMQEHGHTKGITNLTNKLKEL | 0.22
HMKEKQLMTLDDDLYAFLLKHPGIIQKDIYNHFPYDIKGVIADTLYAWDKTGKIKRTKSGNSYIIYT | -0.141
HMYDKKVFRLLFILNQLDSRKKVSTGELAKEFNVSPRTVQRDIVLLNTTGFPIISLEKGYHSFMEGFSLK | -0.7
HMGAAIEYGDRGNTVLQAQRLLIARGYMAGSADGIYGRQMEQAVKRFQKEQGLPESGVVDRRTLQVLIRSR | 0.04
HMNSLKNKNNLIALVGASNDKNKYGNKILLDLVSKGHNVVPINPKEDTVAGLKSYNNVSELSEKPSI | -0.202
HMADYYETLGVERTASEEDIKRAYRKMSRKYHPDIAGPEFEEKFKEVNTAYEVLSDPDKRRMYDAGVDPND | 0.0648
HMEITRDTVIQWLEAERRSQTWLSKQLGVSVQAVSNWLREKNPQTISASAQITIRALMEEDAAK | 0.00665
HMVAGHLQEKNGYFYIVLNYTNHEGKRKSKWITTGLTVKGNKKRAQDLLQEARKTFVPDIPT | 0.22
HMGKREKTKVANRQAILVAARAVFAELGYEAATVRDIIRGTDLASGTFYNYFKSKEEVFDALADDGA | -0.79
HMRGLIEPLSQRELEVLMLMARGQSNAHIADQLNISENTIKWHGRNIFGKLGVSNRTEAVITSQEMGMLAT | -0.711
HMDAMLSEQLREKRGELLIEVDAIAGNALRWATLSAEQQDAWAVYRQALLDVPQQAGFPNDVVWPINPN | -0.982

Sequence | soluble fraction (log2)
HMDDGLTRLTPRENEVLELMAQGRSNTAIAERLVLSYGAVEKNVSSIFTKLDLPLDAGDHRRVLAVLRRLN | -0.677
HMDLTPEEQMDLYRLLDSLPTEERTYLILHYFEERSFPEMAEILSMPEAKLKSRFYRILHRLRAHL | -1.11
HMSQNVSFTVDSGQAGLRLDVFLSQADPAFSRSQIKYAIEEGDVTVNGKEPKVSQHLKDGDIVELHLE | 0.114
HMHRTRNAERTRAAVLKAAAEVLAERGTGASLARIAEVAGVSKSGLLHHFANREQLIVALLED | -0.462
HMRQKTTFFATESFELPNGEKVEEGQIFRLNDGAFNIAEQQGITRFLTSEANYGRMIAANAEVEKAKLDA | -1.05
HMIQNTGMMESGDSIRGMALDAGFPLLMVVGYRGWTRKGNTPDSAAVYTEPFLNAFRLNYYLVEHDE | -0.0253
HMNPTLPYGFAKRHGVILLEAGEVAVVGLREGADPAALIETRRALGRPLRVEPLDQATFDRRLSQVYA | -0.15
HMSITKDNLSIGTNIRISGFSDIGRIISIPNKGNQVQVQIGSAKMNIKINSIVEIIKEEKDFNKNISN | 0.189
HMREYEKAVDYVRRMISSGSLNVGDRLPTERELSLELDISRNSTREAMRMLENMGIIVSRHGSGNYISGN | -0.222
HMRRGFGYVRKLPSGRWQASFVGPDLARHSAPHTFETKGDAEGWLGRRQADVVAGEWRPPVP | 0.321
HMAEIIVHEINRHLGESDEPVEFPEERREEAVAELLKNFHNDDAFRKMDDGKYEVALDGEAVREAARSLLA | -0.256
HMNKQEFLNTLRIIFKKANVLDVESIIDVYEEHFAVGYEKGLNDEQIIKSLGTPKEIYTSYVEAGI | -1.16
HMHKREKSFFETIYDDIPGIGKKRRVQLLSAYPTLDSLKSVTLEELKQIVPEESAKLILEKRDSR | 0.407
HMEKILSYKALMNDAGKRIDQFLANNEKDISRTRIKSLILEGSLKLDNNIINDPSYKIKENDVFTLFIPEA | 0.0775
HMRKDEFLQTLRRALNGNVPPRVVEENVRYYDGYISDEVRKGRSEEEVIEEIGDPRLIARTIEDTT | -0.187
HMKSIETVAELVAELKKLNPNAKISNIDGTYTLEEDINTITLPKDFKYDNNLGINNKIDDFTPYISLDVKA | -0.132
HMYQFFVDPGQIQGKRVTITGSDVNHIKNVLRMRIGEEIAVSNGKDGLEYRFGIDEILEDEVIGTLRFVKE | -1.87
HMSDTVDITKLGIAGKTKEAAEALLKENGFSVESKEENSDTIEKGKVISYSPTKPKNGDRITLIVSSGKK | 0.301
